Test results taken from patent US20110135644A1 (ESBATECH AN ALCON BIOMEDICAL RESEARCH UNIT, published 2011).

Biological target: T1, human TNF-alpha (Peprotech, London, UK) (human, UniProt P01375 77-233)
T1 construct: Commercial recombinant protein
Assay: direct ELISA, plates coated with 0.5 µg/ml human TNF-alpha; ESBA105 standard series 50-0.5 ng/ml; used to quantify ESBA105 in serum and brain tissue
Protocol: ESBA105 concentrations were determined by triplicate measurements of each sample in a direct ELISA. 96-well plates (NUNC MaxiSorp; Omnilab, Mettmenstetten, Switzerland) were coated with 0.5 μg/ml human TNF-alpha (Peprotech, London, UK) in PBS overnight at 4° C. Between each of the following steps plates were washed three times with TBS-T (0.005% Tween20; Axon Lab, Baden-Dattwyl, Switzerland) using a micro plate washer (ASYS Atlantis, Salzburg, Austria). Unspecific binding sites were saturated by 1.5 hour incubation in PBS/1% BSA/0.2% Tween20. […] Bound ESBA105 was detected with a biotinylated affinity purified polyclonal rabbit anti-ESBA105 antibody (AK3A, ESBATech, Schlieren, Switzerland) that was diluted 1:20′000 in dilution buffer (1.5 h, room temperature). AK3A, in turn, was detected with poly-horseradish peroxidase streptavidin (Stereospecific Detection Technologies, Baesweiler, Germany) at a concentration of 0.2 ng/ml dilution buffer. […] Absorbance was measured at 450 nm in a plate reader (Sunrise; Tecan, Maennedorf, Switzerland) and ESBA105 concentrations in samples were calculated by polynomial regression from a standard curve (GraphPad Prism 4.03; GraphPad Software, Inc., San Diego, Calif.). The minimum quantifiable concentration (LOQ) of ESBA105 was 5 ng/ml in serum and 33 ng/ml in brain tissue, respectively.

T1 sequence (P01375 77-233 limits assumed): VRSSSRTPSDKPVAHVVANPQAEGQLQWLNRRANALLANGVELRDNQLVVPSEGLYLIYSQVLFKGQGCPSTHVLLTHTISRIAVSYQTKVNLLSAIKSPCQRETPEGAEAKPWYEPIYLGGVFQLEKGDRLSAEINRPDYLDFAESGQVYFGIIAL

B1: ESBA105 (scFv)
scFv: MADIVMTQSPSSLSASVGDRVTLTCTASQSVSNDVVWYQQRPGKAPKLLIYSAFNRYTGVPSRFSGRGYGTDFTLTISSLQPEDVAVYYCQQDYNSPRTFGQGTKLEVKRGGGGSGGGGSGGGGSSGGGSQVQLVQSGAEVKKPGASVKVSCTASGYTFTHYGMNWVRQAPGKGLEWMGWINTYTGEPTYADKFKDRFTFSLETSASTVYMELTSLTSDDTAVYYCARERGDAMDYWGQGTLVTVSS
notes: also called ESBA105 scFv (α-TNFalpha); E105
B1: binds.
